The supplement of paper PMC7877785
± gives the uncertainty stated by the source.

Assay: self-splicing fitness, log relative to wild type (ln ratio); higher = more splicing; Tetrahymena group I intron in knt gene, E. coli kanamycin selection, DiMSum; sequences stand for … in CUCUCU…GGAGGGAAAAGUUAUCAGGCAUGCACCUGGUAGCUAGUCUUUAAACCAAUAGAUUGCAUCGGUUUAAAAGGCAAGACCGUCAAAUUGCGGGAAAGGGGUCAACAGCCGUUCAGUACCAAGUCUCAGGGGAAACUUUGAGAUGGCCUUGCAAAGGGUAUGGUAAUAAGCUGACGGACAUGGUCCUAACCACGCAGCCAAGUCCUAAGUCAACAGAUCUUCUGUUGAUAUGGAUGCAGUUCACAGACUAAAUGUCGGUCGGGGAAGAUGUAUUCUUCUCAUAAGAUAUAGUCGGACCUCUCCUUAAUGGGAGCUAGCGGAUGAAGUGAUGCAACACUGGAGCCGCUGGGAACUAAUUUGUAUGCGAAAGUAUAUUGAUUAGUUUUGGAGUACUCGUGGUCG
In short: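 A randomised library covering all eight P1ex-region intron nucleotides was built with the intron in the knt kanamycin-resistance gene on pET-22b(+) and held in E. coli BL21(DE3). Cells were grown overnight at 37°C or 30°C on LB agar, with or without 25 μg/mL kanamycin, plus 100 μg/mL carbenicillin, 50 μM IPTG and 0.2% rhamnose, and pooled colonies were amplicon-sequenced on an Illumina HiSeq 2500. DiMSum fitness is the error-weighted combination of wild-type-normalised replicate fold changes, kanamycin versus none.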

Sequence	self-splicing fitness (ln) (37 °C)	self-splicing fitness (ln) (30 °C)
CAGUAGCAAUAUUACGCUCC	-1.31 ± 0.4	–
CAGUAGCAAUAUUACGGGCG	0.0762 ± 0.098	-0.256 ± 0.089
CAGUAGCAAUAUUACGGUUA	-2.69 ± 0.15	-2.63 ± 0.14
CAGUAGCAAUAUUACGUCUU	0.135 ± 0.076	-1.17 ± 0.067
CAGUAGCAAUAUUACGUGAC	-2.23 ± 0.31	-4.5 ± 0.36
CAGUAGCAAUAUUACGUGCA	-2.45 ± 0.14	-3.14 ± 0.13
CAGUAGCAAUAUUACGUGUA	-2.55 ± 0.19	-4.62 ± 0.34
CAGUAGCAAUAUUACGUUCG	0.209 ± 0.1	0.207 ± 0.07
CAUAAGCAAUAUUACGAAAC	-2.38 ± 0.45	-3.31 ± 0.39
CAUAAGCAAUAUUACGACAA	-1.59 ± 0.19	-3.05 ± 0.28
CAUAAGCAAUAUUACGACAG	0.334 ± 0.09	-0.32 ± 0.072
CAUAAGCAAUAUUACGACCG	0.553 ± 0.14	0.135 ± 0.085
CAUAAGCAAUAUUACGACGA	-0.546 ± 0.11	-2.01 ± 0.17
CAUAAGCAAUAUUACGACUA	-0.427 ± 0.078	-1.94 ± 0.095
CAUAAGCAAUAUUACGAUAA	-1.45 ± 0.2	-4.17 ± 0.37
CAUAAGCAAUAUUACGAUAG	0.232 ± 0.084	0.359 ± 0.072
CAUAAGCAAUAUUACGCCCA	-1.35 ± 0.29	-2.14 ± 0.21
CAUAAGCAAUAUUACGCCCU	-2.4 ± 0.49	-2.76 ± 0.43
CAUAAGCAAUAUUACGGCCC	–	-3.92 ± 0.4
CAUAAGCAAUAUUACGGCUU	-3.07 ± 0.32	-2.75 ± 0.2
CAUAAGCAAUAUUACGGUAG	-0.382 ± 0.089	-1.06 ± 0.087
CAUAAGCAAUAUUACGGUAU	-2.94 ± 0.21	-4.64 ± 0.26
CAUAAGCAAUAUUACGGUCC	-2.28 ± 0.31	-3.2 ± 0.25
CAUAAGCAAUAUUACGGUGC	-3.18 ± 0.24	-3.51 ± 0.18
CAUAAGCAAUAUUACGUAUA	-2.32 ± 0.13	-3.21 ± 0.12

Sequence	self-splicing fitness (ln) (37 °C)	self-splicing fitness (ln) (30 °C)
CAUAAGCAAUAUUACGUCGG	-0.568 ± 0.087	-0.598 ± 0.061
CAUAAGCAAUAUUACGUGCC	-2.66 ± 0.38	-3.1 ± 0.21
CAUAAGCAAUAUUACGUGCU	-1.89 ± 0.27	-3.19 ± 0.3
CAUAAGCAAUAUUACGUUUC	-2.26 ± 0.2	-3.35 ± 0.21
CAUAAGCAAUAUUACGUUUG	-2.46 ± 0.18	-3.3 ± 0.17
CAUCAGCAAUAUUACGAAAA	-2.89 ± 0.28	–
CAUCAGCAAUAUUACGACCA	-1.1 ± 0.19	-1.38 ± 0.19
CAUCAGCAAUAUUACGACCG	0.366 ± 0.12	-0.142 ± 0.086
CAUCAGCAAUAUUACGACGG	-0.0315 ± 0.1	-0.186 ± 0.085
CAUCAGCAAUAUUACGAGCA	-0.921 ± 0.14	-2.05 ± 0.23
CAUCAGCAAUAUUACGCAAU	-3.15 ± 0.17	-4.01 ± 0.24
CAUCAGCAAUAUUACGCAUG	-2.23 ± 0.13	-2.03 ± 0.11
CAUCAGCAAUAUUACGCCUC	-1.57 ± 0.24	–
CAUCAGCAAUAUUACGCGGA	-2.6 ± 0.29	-3.61 ± 0.27
CAUCAGCAAUAUUACGCGUG	-2.16 ± 0.092	-3.13 ± 0.095
CAUCAGCAAUAUUACGGACC	-0.899 ± 0.22	-3.04 ± 0.24
CAUCAGCAAUAUUACGGCCA	-0.947 ± 0.27	-2.63 ± 0.28
CAUCAGCAAUAUUACGGGAA	-1.68 ± 0.17	-2.53 ± 0.21
CAUCAGCAAUAUUACGUAAG	0.711 ± 0.092	-0.0494 ± 0.068
CAUCAGCAAUAUUACGUCGG	-0.317 ± 0.076	-0.265 ± 0.055
CAUCAGCAAUAUUACGUGAG	-0.244 ± 0.073	-0.345 ± 0.055
CAUGAGCAAUAUUACGACGG	-0.199 ± 0.17	-0.356 ± 0.12
CAUGAGCAAUAUUACGAGAU	-1.82 ± 0.28	-4.03 ± 0.23
CAUGAGCAAUAUUACGAGCU	–	-2.78 ± 0.23
CAUGAGCAAUAUUACGAUAG	-0.709 ± 0.1	-1.55 ± 0.088

Sequence	self-splicing fitness (ln) (37 °C)	self-splicing fitness (ln) (30 °C)
CAUGAGCAAUAUUACGAUCA	-2.24 ± 0.16	-2.99 ± 0.15
CAUGAGCAAUAUUACGCAAG	-1.69 ± 0.12	-3.15 ± 0.13
CAUGAGCAAUAUUACGCAGG	-1.51 ± 0.2	-3.17 ± 0.19
CAUGAGCAAUAUUACGCAUG	-1.18 ± 0.25	-3.01 ± 0.2
CAUGAGCAAUAUUACGCCCG	-0.89 ± 0.2	-1.56 ± 0.18
CAUGAGCAAUAUUACGCCUA	-1.75 ± 0.26	-2.28 ± 0.24
CAUGAGCAAUAUUACGCUGU	-1.14 ± 0.23	-3.14 ± 0.23
CAUGAGCAAUAUUACGGACG	-0.391 ± 0.11	-0.912 ± 0.087
CAUGAGCAAUAUUACGGCAA	-2.02 ± 0.28	-2.43 ± 0.17
CAUGAGCAAUAUUACGGCGA	-2.53 ± 0.25	-3.34 ± 0.31
CAUGAGCAAUAUUACGGGUG	-2.43 ± 0.13	-3.68 ± 0.19
CAUGAGCAAUAUUACGUAAC	-2.61 ± 0.31	-3.38 ± 0.35
CAUGAGCAAUAUUACGUAUC	-3.15 ± 0.25	-3.9 ± 0.32
CAUGAGCAAUAUUACGUCCA	-2.28 ± 0.34	-2.74 ± 0.33
CAUGAGCAAUAUUACGUUCU	-3.11 ± 0.26	-3.59 ± 0.27
CAUGAGCAAUAUUACGUUUC	–	-2.86 ± 0.34
CAUUAGCAAUAUUACGAAAG	-0.567 ± 0.13	-0.84 ± 0.12
CAUUAGCAAUAUUACGAACC	-1.98 ± 0.34	-3.51 ± 0.46
CAUUAGCAAUAUUACGAAUC	-2.49 ± 0.18	-4.46 ± 0.31
CAUUAGCAAUAUUACGACCG	0.169 ± 0.1	0.0272 ± 0.082
CAUUAGCAAUAUUACGACGU	-0.0623 ± 0.14	-1.47 ± 0.12
CAUUAGCAAUAUUACGAUGC	-3.61 ± 0.42	–
CAUUAGCAAUAUUACGCACU	-0.806 ± 0.13	-1.26 ± 0.1
CAUUAGCAAUAUUACGCCCU	-1.55 ± 0.24	-2.38 ± 0.22
CAUUAGCAAUAUUACGCCGU	-1.84 ± 0.21	-2.04 ± 0.15

Sequence	self-splicing fitness (ln) (37 °C)	self-splicing fitness (ln) (30 °C)
CAUUAGCAAUAUUACGCGAG	-0.923 ± 0.095	-1.52 ± 0.11
CAUUAGCAAUAUUACGGCGU	-0.905 ± 0.13	-2.25 ± 0.13
CAUUAGCAAUAUUACGGCUA	-1.47 ± 0.15	-2.88 ± 0.29
CAUUAGCAAUAUUACGGUGC	-2.34 ± 0.3	-4.19 ± 0.31
CAUUAGCAAUAUUACGUACC	-1.28 ± 0.13	-3.96 ± 0.21
CAUUAGCAAUAUUACGUCUA	-2.2 ± 0.17	-2.74 ± 0.17
CAUUAGCAAUAUUACGUUGA	-2.65 ± 0.34	-3.86 ± 0.37
CAUUAGCAAUAUUACGUUUG	-1.51 ± 0.13	-2.16 ± 0.1
CCAAAGCAAUAUUACGAACG	-0.168 ± 0.071	0.08 ± 0.054
CCAAAGCAAUAUUACGAAUG	-0.166 ± 0.092	-1.03 ± 0.07
CCAAAGCAAUAUUACGAGAG	-1.91 ± 0.2	-2.24 ± 0.23
CCAAAGCAAUAUUACGAUCC	–	-3.73 ± 0.31
CCAAAGCAAUAUUACGAUGA	-1.34 ± 0.09	-2.55 ± 0.12
CCAAAGCAAUAUUACGAUUG	-0.695 ± 0.081	-1.36 ± 0.06
CCAAAGCAAUAUUACGCACU	-2.75 ± 0.23	-2.09 ± 0.19
CCAAAGCAAUAUUACGCAGG	-3.74 ± 0.27	-3.23 ± 0.15
CCAAAGCAAUAUUACGCAUU	-3.55 ± 0.46	-3.34 ± 0.26
CCAAAGCAAUAUUACGCGAA	-2.5 ± 0.28	-2.8 ± 0.44
CCAAAGCAAUAUUACGCUGU	-2.69 ± 0.15	-3.89 ± 0.14
CCAAAGCAAUAUUACGGACG	0.287 ± 0.091	-0.4 ± 0.064
CCAAAGCAAUAUUACGGCUU	-2.32 ± 0.14	-4.45 ± 0.21
CCAAAGCAAUAUUACGGUUA	-2.48 ± 0.14	-2.46 ± 0.12
